Experimental data taken from the DeepSol protein solubility set.

Assay: soluble on expression in E. coli; label from the status in PepcDB or PDB records

Row | Sequence | soluble on expression in E. coli
1 | MSELNKEMTLLPPPELVQYVGGDFKKVGKEFLKHFIQIGALKSNEKVLDVGCGVGRMAVPLMNYLNDDGAYYGFDLFKDGITWCQNNISTMRNNFHFEHVDIYNQFYNPEGKEDASQYRFPYEDGTFDFIFLTSVFTHLLPKELEHYVSEIVRVLKKDGRCFITFFLINPESSYYLNAGQSTLGFYHRIENCYVVNKDIPNFAVAYPETDICNLLNKYGLEIINKPHYGLWCGRHEYTSYQDIVLTKKSFLEHHHHHH | soluble
2 | MGSDKIHHHHHHMPTPIKIGVSSCLLGEKVRYDGGHKHDRYITDTLGRFFEFVSVCPEAECGMPIPREAMRLEADGGEVRLVTSRSRVDKTEQMLDFCRRKVLELESEDLCGFIFKKDSPSSGLFNVKLYRRGMPTKAGRGLFADAVTKHFPLLPVEEEGRLHDMGLREHFIERVFAFRRWKDLLLGGKSLGRLVAFHADHKLLIMAHSPEVYREMGALVARGKELGCDDLFACYQELFMKALSLHATVRKNTNVLQHIAGYFKKQLTREEKAELQEVIGEYHRHLVPLIVPVTLLRHYVKKYGQEYLLKQVYLSPTPLELMLRNHV | not soluble
3 | RQLKVGQLVLSATPLPSLDEQARSLALVNLVRRKGIELLPWNPELRQWQARVDMLRQLDIQNGQAESKWPDLSDTSLLETLEK | not soluble
4 | MGSDKIHHHHHHMAGTHLFHGCQAAPLLPESTPFYCTRTIFFKPAFYCVEGSGVKTNPMKINAGTPDSVNQQVIVIGAGVIGLANAVTLARRGFKVTVIDKEGVAAGASFGNAGHFATEQVFPLADPSLLPKLPKMLLDPLGPFRIRPAYFHRALPWFVRFIVNMMPARRQHNGNAIKALNARSMAATKELLTFCGRADLLVENGSLLVFETQDPRVMEQELALYNDAGIAVRLLSGDEARALEPDLSDAISGALWFTEVGHTPNPRAICEALADTLKALGGRIEIDSVCSLQGGNTPSVTTETGKVTKADKLLLCAGAWSRPLALKLGHRVPLETERGYHLMMPQHSGLKRPVASYERKFIITPMEDGTRLAGTVEFGGLNAPMSNARADCLLPHARVLLPKVFATARVSEGKRWMGFRPSLPDSLPVLGESQTPGVYFAFGHQHLGLTWAASSAELLGQLICGETPSIDLSPYCVKRFD | not soluble
5 | MSWDLSTAKPPVVVDTTLRDGSHAHRHQYTVEEARAIAQALDEAGVYAIEVSHGDGLGGSSLQYGFSRTDEMELIRAVRETVRRAKVAALLLPGIGTRKELKEAVEAGIQMVRIATQCTEADISEQHFGMAKEMGLEAVGFLMMSHMRPPEFLAEQARLMEGYGADVVYIVDSAGAMLPEDAYARVKALKEALSRAKVGFHAHNNLGLAIGNTLAALAAGADWVDATLRGYGAGAGNAPLEVLAAVLDKAGLNPGLDVFKLLDAAEYVMGPILHFQPYPDRDSVAIGYAGVYSTFLLHAKRIGKELGVDPLAILLELGRRQAVAGQEDWILRVALELKEKEAGALAD | soluble
6 | MLEHRRLFPGRRYDSRVYRSCASPMPYLLEEKLRGTAMEQRTPPSEAVISGPATPGLAEGKISAYLLDLATRTLRPPTFPPLSDSTVTAKDTVCLVGGPELAWLAVGMTPFRNITSVTLQQGELKSCSLQESMEWMRLAHLLKAAPEQVNGDGGEALALQRRLAAVRTDLVLLDLLANGHPTTGLPQVLATPFADVLDAYVDMEKEQHSAAAPSAPQNVGRLRSVLFDEEPVTGVHLEQPSLRLRLVSLQQLLVRIVRALSGAHVGLPAGNRPTPHAATLLEMTLQTHGLLCGGGVPSQAWSPTPDPADASSGGSSTAALNGTVLLDKFPRLSAEMLLQHVTYLLSNEAKQRTANAADGAGEGSDSIYLSPQRTRHFGLTGVETLLLSATQAEQVNQVLPLYVRGHTLPDEVASDITQTRNIHEAVRKTQRVLSRVLQQASQELASQSGSGTAAVDDAGHNGPHPALAHLPSHLFVRTAGARGPPPGWEYYGVHLGIKAEAMNVRYNLNASDTATLHLIDSSGSSNSGGVTATAGSEVGAESTRSGMPG | not soluble
7 | MGSDKIHHHHHHMDIIVVGGGTSGLLSALALEKEGHNVIVFEKESYVGGLCRSEKIDGYSVDIGVHAITMLDNGPLIRLLNKYSRYLPNFRNYGDYYIRTDKLHRIPVSMHEWMTTPVIPNKDKVLITSKIMDLMTMGFTKDASVYDFVKEMGLSSTSVDFFNTIAYFLSGEDLENTPLWRFFTGAGYIPEDDILPFIYKDMKINPLKSTLVKKFGTERIINILNDGFISSIKNGSKKYINKFMTEHRYSTQGYPVGGVQSICNCITYSLRNTQIKNEEVKKITKNGKKYTVKTSEGEYTSDIIVYSAPAITLPKVAKINKIQKNKEKLSNIKFTKSTTVWIGDEKNYFPYLGSEIWIDNPCWASTVSNYDESLAPKGKHLMGFSFVNSKKEDALKTIESKLNLNTDKVDMLYVQETVPEQASCSIGQFFVYPKIDDTFFVVGTDSDPRSMGITRAAYSVEVMLSEFKNIYDTQKETAKK | not soluble
8 | MMKTMRIAAIPGDGIGKEVLPEGIRVLQAAAERWGFALSFEQMEWASCEYYSHHGKMMPDDWHEQLSRFDAIYFGAVGWPDTVPDHISLWGSLLKFRREFDQYVNLRPVRLFPGVPCPLAGKQPGDIDFYVVRENTEGEYSSLGGRVNEGTEHEVVIQESVFTRRGVDRILRYAFELAQSRPRKTLTSATKSNGLAISMPYWDERVEAMAENYPEIRWDKQHIDILCARFVMQPERFDVVVASNLFGDILSDLGPACTGTIGIAPSANLNPERTFPSLFEPVHGSAPDIYGKNIANPIATIWAGAMMLDFLGNGDERFQQAHNGILAAIEEVIAHGPKTPDMKGNATTPQVADAICKIILR | soluble
9 | DDFLTLDACKIALKEMKKGFDLLCFDAFVHRVKTKQFYRFKQDEFFNQKEFLEFLSKQRHFCWSVWAKCFRKDIILKSFEKIKIDERLSYGEDVLFCYVYFMFCEKIAVFKTCIYHYEFNPNGRYENKNKEILWQNYQDKKKSNELVKKLCLNFKNNDFHKKLFEVLEKEEFDLQRRVDEARN | not soluble
10 | MAHHHHHHMAEEGSGLHQFWNTQPVPQSSIDAADTVGPLEAAGTVDDVPTDPVAIASTLEWWSPDMDNKDDVRAIYELLRDNYVEDVESMFRFNYSEDFLRWALTPPGYHSSWHVAVRRKRDQMLMGFVSGIPVTMRMGAPKKVLQKNKTTEEKEQGPEEKNNDHKSQAEELYLEPRKICEINFLCVHKLLRAKRLAPILIKEVTRRVHLMNIWQAVYTAGRLLPTPFATADYYHRSLNPEKLVAVGFSAIPQQYQKFQNPLSMIKRFYELPAKPKTRGLRPMEPKDAPQVANLLRKKLATCDVAPVFTDEEVAHYTLPREGVLMSYVVEREVSGGGGGGRVDSSRGKQNDAGTQKQITDFFSFFSLPSSIIGSSKHSVLNAAYVFYSANTTISLVHLMSDLLIVAHQQGFDVCNVVNIMDNGDYLSELKFGRGDGNLHYYFYNWSYPIVQPSDVGLFML | not soluble
11 | MGSDKIHHHHHHMNSKYNFQYFQGSSLSDLFAQDITDGSYGFILNYPATASWAAYPNRKKYFIQDGSSEASKTSFDKICQKEPWKNLAVLGDRIPGIVIIPPPKPLLEYWQEHFGFKHSNIEMMDCSTYLDDLSHSDRFDKLITLFPFDCLKPEKHAVTSDTHYRLLSKVTLEEIGVQCPKYKSYNLHQVNIVDIQLPQFPYLIKTSHGLSGEGTYIIKNPSDLNYCLEEINKYLDIKLLDTIIVSEFIKNEVQNYCVQFYVNKAGEITLIGTTGQLVTPEGNYLGGVIDYGKTDMSKFFEMIANVGDYAHKQGYFGVIGFDVLENQDGQFYAIDANFRVNGSTPLCLQRHTLLRLGKEVAKYSSSYRMEGTLESILITLKPELDRKDLIILSALEKAKYGKIYTELYAIVTGETIAQMQYIEQQLQTKGLQLLS | not soluble
12 | MRRQAEAYKAQLAAMVESSDDAIIVKDLNAIITSWNAGAERIFGYQASEITGSSILALIPPERHEEEKGIMSLVKSGNRVDHFETMWWGKGKKPIDVSVTTSAVKDSDGNIVGISQIARDLEHHHHHH | not soluble
13 | AIAIRTKQSEAKSKGDTLRQLELAALMTHCNMLITHQQLALQAAMKLAYATKNYLYALAFAKRLLELAPNEEMERTAKKVMQFCERNPNNQNQLDYDIEQSNFAIDAGRLKPCIQPPTKSCVYCGACYDESWHSMTCVVCQVAQD | soluble
14 | MKKITINDLMKWKQEGRKFATSTAYDASFAQLFESQEMPVLLVGDSLGMVLQGETDTLPVTVDDIAYHTRCVRKGSPNCLLMADMPFMSYATPEQACENAAKLVRAGANMVKIEGGDWLVDTVKMLTERAVPVCAHLGLTPQSVNIFGGYKVQGREQDKADRMVRDALALQEAGAQIVLLECVPAELANRITQILDVPVIGIGAGNGTDGQILVMHDMFGISANYMPKFSKNFLAETGDIRQAVAKYIEDVASGAFPDLAHTIALEHHHHHH | soluble
15 | AKADSEQGNGEDKGTGTKGDGTGRGEGSGKGSGGVKGEHGEGAGSSKGNPLRANGSIPRPAYPTLSMENDEQGTVVLSVLVSPGGHVESVKIVKSSGFSRLDNAARKAAQNGHFQANAWTEFKVPVKFELN | soluble
16 | MGSDKIHHHHHHMAYRSAPIADDIIWRAAPQPEDASLADAVRETIASTRKHLLDFIRLDETPPPAAMTLAQWTRPATFRSLLAAYSDHIYRHTPGLPRENKPLLSLWAQWYIGLMTPPLMLALLTQARAINVSAEHIHVEFHETGRAACFWLDVHQDNLATERSPEERMETLIVSALQPVIQALEATGDINAKLIWSNTGYLINWYLTEMKPLLGEALLATLRQRCFFEKQLSDGQDNPLWRTVVMRDGLLVRRTCCQRYRLPDVQQCGDCTLK | not soluble
17 | MNNNVITRFAPSPTGFLHIGSARTALFNYLFARHHNGKFLLRIEDTDKERSTKEAVEAIFSGLKWLGLDWNGEVIFQSKRNNLYKEAALKLLQNGKAYYCFTRQEEIERQRQQALENKQHFIFNSEWRDKDPSIYPTDIKPVIRLKTPREGSITIHDTLQGEVVIENSHIDDMVLLRADGTATYMLAVVVDDHDMGITHIIRGDDHLTNTARQLAIYQAFGYAVPSMTHIPLIHGADGAKLSKRHGALGIEAYKDMGYLPESLCNYLLRLGWSHGDDEIISMTQAIDWFNLDSLGKSPSKLDFAKMNSLNAHYLRMLDNDSLTSKTVEILEQNYNTLLRHLPYREEFGGNTERSTAAYIDIREDASTGLTYKLPLAVELPKKFKISEQEIGYIKQAMPSLLVRSETLLELTRLAQIYLVDSPIIYSQDSKEIIENCDKNLIKQIIENLSELEQFDKESVQNKFKEIAAANDLKLNDIMKPVRALITGMTASPSIFEIAEILGKENILKRLKII | soluble
18 | SNAMLIIETLPLLRQHIRRLRQEGKRVALVPTMGNLHDGHMKLVDEAKARADVVIVSIFVNPMQFDRPDDLVRYPRTLQEDCEKLNKRKVDYVFAPAVEEIYPHGLEGQTYVDVPGLSTMLEGASRPGHFRGVSTIVSKLFNLIQPDIACFGEKDFQQLALIRKMVADMSYDIEIVGVPIIRAKDGLALSSRNAYLTAEQRKIAPGLYNVMNSIAEKLIAGNRELQEIIAIAEQELNEKGFRADDIQIRDADTLLELTETSKRAVILAAAWLGQARLIDNQSVTLAQ | soluble
19 | MMSTSIPDVAVHDSPAIAAPLRWVGMDGIVVPVQLTTADGGQHVIGRARAQIDLPAMGVKGIHMSRLYRLLDTYAVEPLTPVGICGLLSAMVNSHADCASTAARVDWYFDWLRRVPALVSNDLSGWRGYPVWLRAEYSAGHVQFWLCVEVAYSSTCPCSAALARQMLADAFLQEHVEVSALSPETVADWLRSNGSYATPHSQRSLARIEVALTEQAVELGLPALVDCAERILSTPVQAAVRRVDEQAFARLNGANLMYVEDATRRLQHGLAIHYSAFRVHVRHLESLHPNDAVASTADE | not soluble
